The record followed here is the domain aggregation screens of Martell et al. (2025).

This data set in a line: soluble fraction after stress (log2 fold change); higher = more stays soluble; pooled small domains, quantitative proteomics. Conditions: stress: pH 4. In short, it runs like this:
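Aggregation propensity is read out as the fold change in how much of each domain remains soluble after acid stress. The custom small-domain libraries were pooled, held at pH 4 and analysed with high-throughput quantitative proteomics. On the log2 scale used, higher values mean more of the domain stayed soluble.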
For “HMKHYIDFIAEQLKTLTAIPSPSGYTKNATDYLMKLLQDMGYEPKLSRKGNVFVTLGGDGEPLVLAAHVD”, the “soluble fraction (log2)” value was -0.112. For “HMKIDELKAYLFQSVRVKNPHTQEYDTLKIIELNYYQDKIKAKLKNSDDDYITEMIFESIKHLQNFLG”, the “soluble fraction (log2)” value is -1.98. For “HMKIEEIAYSTFISMLDKGEVSKVELKDNLIYIETKADDKTIYTTGRMEDPDLTNRLIEAGVDFTEIE”, the “soluble fraction (log2)” value is -0.73.

Turning to “HMKIELSDNEKIIYDLLSSQHVLLSEIKDKAGLSNKAWDKSTKSLRKLGLIAVEKKDDDIYISKL”, the “soluble fraction (log2)” value was 0.247. Next, “HMKIGIYPGTFDPITHGHTDIIRRSLRVFDKVVVAVAPNPSKHPLFTLTERLEMIRIVMKELEHVEVT”: 0.117; “HMKILVTDDNIRIDKYLTTQTEYSRSTIQKMIESNNILVNNKPTKSNYILRNNDEITIDENFNEE”: -0.0512. In the case of “HMKININEASRYELMTIGGLDAGRADMLMQYRQKREISSADELKGINGFASYDTAKLQKSFEISP” it was 0.00275; in that of “HMKIRKAVIPAAGLGTRVLPASKSIPKEMLPIVDKPVIQYIVEEAVKAGITEILIITGRGKGAIEDHFDRS”, 0.0275.

In the case of “HMKISIDNPSVLLDKLATLFPDTSKNKLRKMLTEGRIYVNDNIEHRAKRELINGDTVKILDKTTSKE”, the “soluble fraction (log2)” value was -0.0228.

Regarding “HMKITAPLPGTITEIKVKVGDTVKNGDTVVVLEAMKMQNNIEAESNGTVTAIFVNKGDTVMEGDALMTI”, the “soluble fraction (log2)” value came to 0.22. In the case of “HMKITTKNYFKAIAEVGVENLPAALKKSHDLIEERTSKGADWSVYEHDAEVRRVFDLTFEKLFEFIDQ” it was -1.23; in that of “HMKKAITMGDIITVKELSEKIGIQVAEIIKKLMGLGILATINKELDYDTANVIASEFHIELERK”, 0.0872. Next, “HMKKASLSTVEKKLMKQNYSNDTMENRLARVESYMFGTVFSSDDTQTRIDRISSAYNAQKSS”: -0.197; “HMKKDLATYAYEHIKQMVIDRELMPGERIQQEVLARELGISRTPLVTALNRLASENLVELEANKGFSVRRF”: 0.429; “HMKKEETEAEELEEKFTSAQIKQAYGILNDPRYKQGNYSGAVNVINKIAPGLADHPDVKNALKRANEEL”: -0.323. Regarding “HMKKGRIGSIIQYVREHPGVSSSEIITGLGLDISPATIRRDLTLLVAENKLSVEGQNKGTKYFVSPTYDMF”, the “soluble fraction (log2)” value was found to be 0.271.

For “HMKKIDVEVVRSQLIAWMADNGKSQAEVSKSMGISASALSMFIKGTYTGDNEQIGRKAAALMDLVHRQSA”, the “soluble fraction (log2)” value was determined as 0.189. Next, “HMKKILITGNSGYIGSHLSKMLENDYEVHGLDIRQPQHPVAKFYEQDINRPINIEEEYDAVIHLAALV”: -0.104; “HMKKILLGDVNLDGKVDVNDVTLLQRYIAGETEVITSKDALTATNFNKDGNIDVLDVTDIQTFIANSE”: 0.00934. In the case of “HMKKLTNKQIIFFAEKLAHHSDFASKYSKVGESYEEFAIRLEKELNTPQKVEFYSSYLEKVGFK”, the “soluble fraction (log2)” value was -0.78.

On to “HMKKPKTVLSEEQKEFIINQAQDGVSAYDIARILFPSVNVTNLSKEVIDVAEFIRDTDIKLLADSE”, for which the “soluble fraction (log2)” value is -0.132. “HMKKPRKTSRKSIENAAIFYLQRFSSSIENLRRVLMRRVYRSAQYHNTKPEEDAKIVDSIIYRLIETGVL”: the “soluble fraction (log2)” value was -0.0658. In the case of “HMKKSRLHSVLEEIPGIGEKRRKILIKHFGTVEAIKKSSLEELARIKGMNRRAAQNVLEYLK” it was 0.407; in that of “HMKKVIKIEENVSLQKLAALMSLKVTDVLMRLLSMGMSGVNINSTIDADTAKILASEFGWTVED”, -0.669; in that of “HMKKVKVPNVVGMSLKEARDALSAVNIAVNQVAGSVEDKSVVTEQSLKAGDEVDEGSSLNLTTEYK”, 0.412. Next, “HMKKYLTETEAAAYLNMPVEEIKAAITKGEIEQYVKTSSGYTISVEELDKFFGQKAYDTMTSNNS”: -0.43. As for “HMKLASIGDNIHTLRKNKGLTQSQLAGKLGVNVDTISNYEKGVSTPDFDIVEKLVNIFNVDAHSLLFK”, the “soluble fraction (log2)” value is -0.351. For “HMKLEKKWIEAVEKYRRYVLSTGIKHVQKPIEFENFRLGQWYADVRQSYRRGTLSKEKLLEIREINPDFPN”, the “soluble fraction (log2)” value was 0.324. Turning to “HMKLFGTPGSPFARKVRIVLEEKRIPHEYIIERGSAPGSRVPQYNPLGKVPTLVLDDGRGLYDSPVIVEYL”, the “soluble fraction (log2)” value was -0.108.

On to “HMKLGYTVHGNVVTVKAVANGISLYNTIGQKVAESTDGQTVKAPAHGVYILSVQGKSGSRETAKIVI”, for which the “soluble fraction (log2)” value stood at 0.114. For the sequence “HMKLHQDLQIKVIDAANNKVEFIDTATGTSLATRTLDVNGVSKARGFEATLYGVVEDNDVFHIA”, the “soluble fraction (log2)” value is -0.116. In the case of “HMKLIRIPFILTEGPDSQKITIDVDGDEEFRLGDVFEEDDKLWTVNQILVSGERKAKRSMAGEVMRISALR” it was -0.696.

As for “HMKLNEQSMQVIDRIVDRHRGRPGPVKLMLHDVQKELGYIPFEAMEKIAAASGVSADEVYGVVTFYTQFTT”, the “soluble fraction (log2)” value is -1.27.

Take “HMKLNETIAEARKRKGLTQEQLAQKLYVTRQAVSRWERGEVVPGIDMLKLIAITLEEPIVHLL”: the “soluble fraction (log2)” value was -0.679. As to “HMKLQIQNIEIDKKISELAEGVSAEKLPFLAKLIDRSKLLNDKGEINEDSVKAAIEEVVKAFPDFK”, the “soluble fraction (log2)” value was -0.945. In the case of “HMKLRKINLIGIFGSKTAPSALVRLTNGRVLKVGLGELLDGGRVTAIGRSSLTYNKSGKSITLNMPI” it was no less than 0.43; in that of “HMKLRYRTQEELLGVAREYRRRGLPLSVIVIDFYHWTKFGDWKFDPAYWPDPVGMVRELRDMGVEAAV”, 0.22. In the case of “HMKLSKKVTDFLAQMPSKSISPKMLANNLGLADDAGDYKHLLKTIAQLEESKAIEVTAAGNIALPQPE”, the “soluble fraction (log2)” value was 0.0669. In the case of “HMKLSLKTQVKEYLLSYIRDKKLQPGDRLLTQRELAEMLHTSQKVAQMALNSLEEEGIIIRRLGSGSFLAR” it was -0.227. Next, “HMKLTKPQEVFIQELLKGSSQYEAYLKAYPSKKTWKRNSIDTEASKLFKNAKIKQRYEELLYNIREE”: -0.175.

For “HMKLTNNDFIRLKTFMYNNYGINLENKKTLIETRLAIVVKRLGFNDFKSYIDNLMRDKTGEQASIIVGKLT”, the “soluble fraction (log2)” value was -0.141. In the case of “HMKLTPKQQQIYDFISSFADEHGYPPSVREIAQAVNLKSPATVHFHLKGLREAGYISQAEGKTRAITI” it was -0.136; in that of “HMKMDGESQRLLSLIKEQGGSLPIGDKSSPEAIYRLTQMSKKTFKMALGSLYKAKQVVLSPTEVRL”, 0.0519; in that of “HMKMNFNEEEQKLLSEANVLVETNKTYTDDEVKGFSNKIVEHIMTFSKTDIPKVKSKFDPILFKI”, -0.745.

For “HMKMTIEDLITQAKESNAAENYYEAFQLYSKAIDVLPNDPDLYSARGVVLFHLDRKEDSLIDMNKSVD”, the “soluble fraction (log2)” value was -0.879. In the case of “HMKMVEIDYGKFLTMLDTGKVKSVEIENNRIAINPSSSKDKNIYITGRMDDPELVDRLKNAKVEFTKVIP” it was -0.0394; in that of “HMKNAYDLKMLVKDNDGNIERNMKYYFFLANGSKVEGITDDNGYTKTITTIQPEKADLHLINDELI”, -0.0557. Next, “HMKNDIQLKHDVEEELQWDPAVDASRFAVQAKDGVVTLSGGVDTFADKHAAEEAIRRVAGVTALVIHVDV”: -0.271. Next, “HMKNEFRVYPNPANKEIVTFNQTQDIEVYDTLGKLVLKAKNTNTLDTKSFHSGIYFIKTGSGLTRKLVV”: no less than 0.43; “HMKNEQESIAQKLYEAALKNDFVTIQEIQSGGYRLRNDDLTHMRESGVQSNTLIAIQKIFGL”: -0.578; “HMKNEQIFIVRPDAEGTRLDQWLAAQMASSEEAPSRMQIQRWIKAGLVEGQGTLNPARRIEAGESYTVKPG”: 0.203. For the sequence “HMKNEYAMVIQVNGKLRGNMLVSADLEQKDIERMALDNEDIKRFISHENDVKKMIFVPKKLINIVT”, the “soluble fraction (log2)” value is no less than 0.43. “HMKNIFDWLKQINYHKQPADSFTEKDWELFNSYMVHRFMSMNREFIEVVNYVQEMPPQEKILIYNIYREF”: the “soluble fraction (log2)” value is 0.25. In the case of “HMKNIINFIVKEDDNNKRVDMILANHDKSLSRTRVKNLILDSKLKINERIVQDPSIKTKLNDKIELEIVEP” it was 0.251; in that of “HMKNIINLVIDGELHGKRIDAVIAQKNDSLSRTRIKNLVINGNLSINDEIVSDPSKKIYKDDKVSLTIPLP”, -0.085. Next, “HMKNIMRQWIELEPDQGKIRSKLYSLDRVVEETTNEVGMIKLLLEIDEKELNNLVSHNDIRLV”: -0.625; “HMKNIRKQAIEAIDRIKNGNPIVISKNAKLIFKNIAKEANVSPTELHREFRDVMLYVNSLKAP”: 0.271; “HMKNKVTVPKVEGMDKEEAIQALNEVGLGYKAVMQSSDSVAEGKVISQGTAAGKKVDKNTQIIITVSGG”: no less than 0.43. In the case of “HMKNLADNIVALRKKHGLSQEQFAEKIDVTRQAVSNWERRIATPDVETIDLIAKLFDTDLTALVNG” it was -0.129. Regarding “HMKNLKLVSNTDGIRIDSWLADEFEDYSRSYLRKLIDQDLVYVNGNKIKANYKLKKGDEISISIPEPE”, the “soluble fraction (log2)” value is -0.259.

Take “HMKNLTERQQQIIALISGNPLITRAEIASAIGFSVKTIERELSILSEIVSYVGSKKGGHWEIQT”: the “soluble fraction (log2)” value is -0.49. On to “HMKNLTERQQRIIALISENPQTTRAEIAGAIGVATKTIERELTTLSNIVYYVGPKKGGHWEIIK”, for which the “soluble fraction (log2)” value was 0.333. With “HMKNLTEVEYSEFLESIAQDRVSKVQVDGLIIRGEMNDGQRFETVQPQVTDKALIDDMVNHRVDFSGARP”, the “soluble fraction (log2)” value was -0.726. Next, “HMKNMSLGERIKEQRKSSGLSQEKVAEFVGVSRQAVTKWETGQSAPSTENLFKLAEIFGTTVDILLA”: -0.0228; “HMKNNAIAPDQVVSLLKNEVNYNDDGRIEILDNNKNIRYNSKGELLTIEERVNEFLDANPHFRK”: -0.0472.

On to “HMKNSMANVQARREKILSAVDQSEPVAVEGLAQRFNVSITTLRRDLKALSDMGQVKWHHGLVERT”, for which the “soluble fraction (log2)” value turned out to be 0.164. In the case of “HMKNVADEVFEKMLNMIIEGDWKKGEMIPSENELREAFSVSRSTVRQAVQRLSALGIVRSRQGKGTYVEQV” it was 0.0309; in that of “HMKNYYELLGVAREASQDQIKKAYRKLARKYHPDVSKEADAETRMQELNVAYDTLSDAEKKREYDFQLDHP”, 0.218; in that of “HMKPDDDMLLKILTKLFIQKQFVINSKDIFQYILKNTNRTYENIINIVNRLDTLSIEKKRQLTIPLIKEI”, -0.555.
